Peptide text beside a SMILES is read from it. * marks the point of attachment. Propioloyl = C#CC(=O)*
How the values were obtained:
[1] = system: normal human fibroblasts, BJ line (CRL-2522); experiment: Neutral red cytotoxicity assay
Protocol: Normal human fibroblasts, BJ line (CRL-2522™), Eagle’s Minimum Essential Medium (EMEM), and fetal bovine serum (FBS) were obtained from ATCC (Manassas, VA, USA). Cells were grown following ATCC guidelines in an EMEM medium supplemented with 10% FBS at 37 °C in a humidified atmosphere of 95% air and 5% CO2 in a HeraCell 150 incubator (Heraeus, Hanau, Germany).
The assay was performed as per previously published protocols with slight modifications. In brief, BJ cells were plated in 96-well tissue culture plates (Nest Scientific Biotechnology, Wuxi, China) at a density of 6 × 10^3 cells per well and allowed to attach for 24 h in EMEM supplemented with 10% FBS. After the incubation period, the medium was removed, and 10% dimethyl sulfoxide (DMSO)-treated cells (Sigma-Aldrich, St. Louis, MO, USA) were used as a positive control, while nontreated cells served as a negative control.
The cells were treated with peptides suspended in EMEM medium supplemented with 10% FBS and incubated for 24 h at 37 °C in a humidified atmosphere of 95% air and 5% CO2. After the incubation, the supernatants were discarded and replaced with 100 µL of non-supplemented EMEM containing 0.33% neutral red (Sigma-Aldrich) diluted 1:40. The cells were incubated for an additional 2 h at 37 °C. Following incubation, the neutral red medium was removed, and the cells were washed with 100 µL of phosphate-buffered saline (PBS) per well.
To extract the dye into the solution, the cells were treated with 150 µL of a solution containing 50% ethanol (Alchem, Torun, Poland), 49% distilled H2O, and 1% acetic acid (Alchem, Torun, Poland) and incubated under shaking at 37 °C for 10 min. Absorbance was measured at 540 nm using a Synergy H1 plate reader (BioTek Instruments, Winooski, VT, USA). The assay was performed in triplicate to ensure reproducibility.

[2] = in vitro
Description: This assay utilized a 96-well plate assembly consisting of a filter plate pre-coated with polar brain lipids (donor plate) and a receiver plate (acceptor plate). The phospholipid mixture used to coat the membrane was extracted from porcine polar brain lipids, with the following composition: 12.6% phosphatidylcholine, 33.1% phosphatidylethanolamine, 18.5% phosphatidylserine, 4.1% phosphatidylinositol, 0.8% phosphatidic acid, and 30.9% of other compounds, including cerebrosides, sulfatides, and pigments.
In each well of the donor filtration plate (Multiscreen Filter Plate, PVDF with a pore size of 0.45 µm), 5 µL of the phospholipid mixture in n-dodecane (20 mg/mL) was carefully applied to form the artificial membrane. After coating, 200 µL of phosphate-buffered saline (PBS at pH 7.4) containing 5% dimethyl sulfoxide (DMSO) as a co-solvent, and the test compound (at a concentration of 20 µM) was added to each well of the donor plate (in triplicate). […] The plate lid was then replaced and the resulting assembled donor–acceptor plates were incubated at room temperature for 20 h. After this time, the donor plate was removed and solutions from each well of both acceptor and donor plates were collected for further analysis. The concentrations of the tested compounds were determined by LC-MS. The analysis was conducted by UHPLC-MS system (Shimadzu Nexera X2 with LCMS-2020 detector) using a ReproSil Pure 120 ODS-3 column (Dr. Maisch GmbH, 100 × 2 mm, 2.4 µm particle size) with several gradients of ACN with 0.1% FA and 0.05% TFA at a flow rate of 0.3 mL/min. The eluted solution was monitored by an ESI-MS detector operated in a selected ion monitoring mode (SIM). […] CE=CD×VD+CA×VA/VD+VA

Compound | R, mass retention ([2]; 20 h incubation, mean ± SEM) | further results
C[S+](C)[O-] [DMSO, dimethyl sulfoxide, reference compound] |  | cell viability [1]: approximately 21%
O=C(O)Cc1ccccc1Nc1c(Cl)cccc1Cl [Diclofenac, reference compound] |  | R, mass retention ([2]; PAMPA, 20 h, 20 µM, pH 7.4): 12.0 ± 3.3%; Papp at 20 h, 20 µM ([2]; PAMPA, pH 7.4): 3.44 ± 0.1 ×10⁻⁶ cm/s
CC[C@H](C)[C@H](NC(=O)[C@H](CCCCN)NC(=O)[C@H](CCCCN)NC(=O)[C@H](C)NC(=O)[C@H](CC(C)C)NC(=O)[C@H](C)NC(=O)[C@H](C)NC(=O)[C@H](CC(C)C)NC(=O)[C@H](C)NC(=O)[C@H](CCCCN)NC(=O)[C@H](CC(C)C)NC(=O)[C@H](CC(N)=O)NC(=O)[C@@H](NC(=O)[C@H](CCCCN)NC(=O)CNC(=O)[C@H](CC(C)C)NC(=O)[C@H](CC(C)C)NC(=O)[C@H](Cc1ccc(O)cc1)NC(=O)CNC(=O)[C@H](C)NC(=O)c1cn(CCOCCOCCOCCNC(=O)[C@H]2NC(=O)[C@H]3NC(=O)[C@H](NC(=O)[C@@H]4NC(=O)[C@H](CC(N)=O)NC(=O)[C@H](NC(=O)[C@@H](CC(C)C)NC)[C@H](O)c5ccc(c(Cl)c5)Oc5cc4cc(c5O[C@@H]4O[C@H](CO)[C@@H](O)[C@H](O)[C@H]4O[C@H]4C[C@](C)(N)[C@H](O)[C@H](C)O4)Oc4ccc(cc4Cl)[C@H]3O)c3ccc(O)c(c3)-c3c(O)cc(O)cc32)nn1)[C@@H](C)CC)C(=O)N[C@@H](CC(C)C)C(N)=O [compound 2] | 10.0 ± 0.6% | concentration above which cytotoxicity was shown ([1]; 24 h): above 64 µg/mL; Papp at 20 h, 20 µM ([2]; pig, PAMPA, pH 7.4, Pe, effective permeability coefficient, 20 h incubation, 20 µM, pH 7.4, mean ± SEM): 0.187 ×10⁻⁶ cm/s
CN[C@H](CC(C)C)C(=O)N[C@H]1C(=O)N[C@@H](CC(N)=O)C(=O)N[C@H]2C(=O)N[C@H]3C(=O)N[C@H](C(=O)N[C@H](C(=O)NCCOCCOCCOCCn4cc(C(=O)N[C@@H](Cc5ccc(O)cc5)C(=O)NCC(=O)N[C@@H](CCCNC(=N)N)C(=O)N[C@@H](CCCCN)C(=O)N[C@@H](CCCCN)C(=O)N[C@@H](CCCNC(=N)N)C(=O)N[C@@H](CCCNC(=N)N)C(=O)N[C@@H](CCC(N)=O)C(=O)N[C@@H](CCCNC(=N)N)C(=O)N[C@@H](CCCNC(=N)N)C(=O)N[C@@H](CCCNC(=N)N)C(N)=O)nn4)c4cc(O)cc(O)c4-c4cc3ccc4O)[C@H](O)c3ccc(c(Cl)c3)Oc3cc2cc(c3O[C@@H]2O[C@H](CO)[C@@H](O)[C@H](O)[C@H]2O[C@H]2C[C@](C)(N)[C@H](O)[C@H](C)O2)Oc2ccc(cc2Cl)[C@H]1O [compound 5] | 8.7 ± 3.8% | 
CN[C@H](CC(C)C)C(=O)N[C@H]1C(=O)N[C@@H](CC(N)=O)C(=O)N[C@H]2C(=O)N[C@H]3C(=O)N[C@H](C(=O)N[C@H](C(=O)O)c4cc(O)cc(O)c4-c4cc3ccc4O)[C@H](O)c3ccc(c(Cl)c3)Oc3cc2cc(c3O[C@@H]2O[C@H](CO)[C@@H](O)[C@H](O)[C@H]2O[C@H]2C[C@](C)(NC(=O)CCOCCOCCOCCOCCn3cc(C(=O)N[C@@H](Cc4ccc(O)cc4)C(=O)NCC(=O)N[C@@H](CCCNC(=N)N)C(=O)N[C@@H](CCCCN)C(=O)N[C@@H](CCCCN)C(=O)N[C@@H](CCCNC(=N)N)C(=O)N[C@@H](CCCNC(=N)N)C(=O)N[C@@H](CCC(N)=O)C(=O)N[C@@H](CCCNC(=N)N)C(=O)N[C@@H](CCCNC(=N)N)C(=O)N[C@@H](CCCNC(=N)N)C(N)=O)nn3)[C@H](O)[C@H](C)O2)Oc2ccc(cc2Cl)[C@H]1O [compound 6] | 77.7 ± 0.3% | 
CN[C@H](CC(C)C)C(=O)N[C@H]1C(=O)N[C@@H](CC(N)=O)C(=O)N[C@H]2C(=O)N[C@H]3C(=O)N[C@H](C(=O)N[C@H](C(=O)NCCSSCCn4cc(C(=O)N[C@@H](Cc5ccc(O)cc5)C(=O)NCC(=O)N[C@@H](CCCNC(=N)N)C(=O)N[C@@H](CCCCN)C(=O)N[C@@H](CCCCN)C(=O)N[C@@H](CCCNC(=N)N)C(=O)N[C@@H](CCCNC(=N)N)C(=O)N[C@@H](CCC(N)=O)C(=O)N[C@@H](CCCNC(=N)N)C(=O)N[C@@H](CCCNC(=N)N)C(=O)N[C@@H](CCCNC(=N)N)C(N)=O)nn4)c4cc(O)cc(O)c4-c4cc3ccc4O)[C@H](O)c3ccc(c(Cl)c3)Oc3cc2cc(c3O[C@@H]2O[C@H](CO)[C@@H](O)[C@H](O)[C@H]2O[C@H]2C[C@](C)(N)[C@H](O)[C@H](C)O2)Oc2ccc(cc2Cl)[C@H]1O [compound 7] | 23.8 ± 4.9% | 
CN[C@H](CC(C)C)C(=O)N[C@H]1C(=O)N[C@@H](CC(N)=O)C(=O)N[C@H]2C(=O)N[C@H]3C(=O)N[C@H](C(=O)N[C@H](C(=O)O)c4cc(O)cc(O)c4-c4cc3ccc4O)[C@H](O)c3ccc(c(Cl)c3)Oc3cc2cc(c3O[C@@H]2O[C@H](CO)[C@@H](O)[C@H](O)[C@H]2O[C@H]2C[C@](C)(NC(=O)CCC(=O)NCCSSCCn3cc(C(=O)N[C@@H](Cc4ccc(O)cc4)C(=O)NCC(=O)N[C@@H](CCCNC(=N)N)C(=O)N[C@@H](CCCCN)C(=O)N[C@@H](CCCCN)C(=O)N[C@@H](CCCNC(=N)N)C(=O)N[C@@H](CCCNC(=N)N)C(=O)N[C@@H](CCC(N)=O)C(=O)N[C@@H](CCCNC(=N)N)C(=O)N[C@@H](CCCNC(=N)N)C(=O)N[C@@H](CCCNC(=N)N)C(N)=O)nn3)[C@H](O)[C@H](C)O2)Oc2ccc(cc2Cl)[C@H]1O [compound 8] | 31.5 ± 1.5% | 
C#CC(=O)N[C@@H](Cc1ccc(O)cc1)C(=O)N[C@@H](C)C(=O)N[C@@H](CCCNC(=N)N)C(=O)N[C@@H](C)C(=O)N[C@@H](C)C(=O)N[C@@H](C)C(=O)N[C@@H](CCCNC(=N)N)C(=O)N[C@@H](CCC(N)=O)C(=O)N[C@@H](C)C(=O)N[C@@H](CCCNC(=N)N)C(=O)N[C@@H](C)C(N)=O [compound 9] (Propioloyl-YARAAARQARA-NH2) | 6.7 ± 1.5% | 
CN[C@H](CC(C)C)C(=O)N[C@H]1C(=O)N[C@@H](CC(N)=O)C(=O)N[C@H]2C(=O)N[C@H]3C(=O)N[C@H](C(=O)N[C@H](C(=O)NCCOCCOCCOCCn4cc(C(=O)N[C@@H](CCCNC(=N)N)C(=O)N[C@@H](CCCNC(=N)N)C(=O)N[C@@H](CCCNC(=N)N)C(=O)N[C@@H](CCCNC(=N)N)C(=O)N[C@@H](CCCNC(=N)N)C(=O)N[C@@H](CCCNC(=N)N)C(=O)N[C@@H](CCCNC(=N)N)C(=O)N[C@@H](CCCNC(=N)N)C(=O)N[C@@H](CCCNC(=N)N)C(N)=O)nn4)c4cc(O)cc(O)c4-c4cc3ccc4O)[C@H](O)c3ccc(c(Cl)c3)Oc3cc2cc(c3O[C@@H]2O[C@H](CO)[C@@H](O)[C@H](O)[C@H]2O[C@H]2C[C@](C)(N)[C@H](O)[C@H](C)O2)Oc2ccc(cc2Cl)[C@H]1O [compound 15] | 2.7 ± 0.9% | 
CN[C@H](CC(C)C)C(=O)N[C@H]1C(=O)N[C@@H](CC(N)=O)C(=O)N[C@H]2C(=O)N[C@H]3C(=O)N[C@H](C(=O)N[C@H](C(=O)O)c4cc(O)cc(O)c4-c4cc3ccc4O)[C@H](O)c3ccc(c(Cl)c3)Oc3cc2cc(c3O[C@@H]2O[C@H](CO)[C@@H](O)[C@H](O)[C@H]2O[C@H]2C[C@](C)(NC(=O)CCOCCOCCOCCOCCn3cc(C(=O)N[C@@H](CCCNC(=N)N)C(=O)N[C@@H](CCCNC(=N)N)C(=O)N[C@@H](CCCNC(=N)N)C(=O)N[C@@H](CCCNC(=N)N)C(=O)N[C@@H](CCCNC(=N)N)C(=O)N[C@@H](CCCNC(=N)N)C(=O)N[C@@H](CCCNC(=N)N)C(=O)N[C@@H](CCCNC(=N)N)C(=O)N[C@@H](CCCNC(=N)N)C(N)=O)nn3)[C@H](O)[C@H](C)O2)Oc2ccc(cc2Cl)[C@H]1O [compound 16] | 37.3 ± 4.8% | 
